By Kd is commonly meant a measure of binding affinity in units of concentration. Higher therefore signals weaker binding.

For this experiment, the target named is Nrp1 immobilized on the BLI biosensor (UniProt Q9QWJ9). Kind of experiment: BLI. In general terms: Biolayer interferometry detects binding as a change in optical thickness at a sensor tip.

As for “human glycyl-tRNA synthetase L129P mutant (L129P-GlyRS^CMT2D), non-tagged (enzyme)”, the Kd amounted to 29.8 nM.

“human glycyl-tRNA synthetase P234KY mutant (P234KY-GlyRS^CMT2D), non-tagged (enzyme)” gave a Kd of 209 nM. Against the preceding substance, the Kd is about 7-fold higher.
